Biological target: Rab7-RILP complex (human) (UniProt P51149)
Experiment: ITC; 20 °C; 20 mM Tris-HCl pH 7.5, 150 mM NaCl; 1 mM ORP1 ANK in the syringe, 0.1 mM Rab7 or Rab7-RILP in the cell; Rab7 Q67L with 0.5 mM GTP, Rab7 T22N with 0.5 mM GDP; independent binding model

B1: human ORP1 ANK domain (residue 5-152) (domain or fragment)
chain: AEQQLLHHARNGNAEEVRQLLETMARNEVIADINCKGRSKSNLGWTPLHLACYFGHRQVVQDLLKAGAEVNVLNDMGDTPLHRAAFTGRKELVMLLLEYNADTTIVNGSGQTAKEVTHAEEIRSMLEAVERTQQRKLEELLLAAAREG
Kd: 5 µM

From article PMC6363164
